Biological target: MERS-CoV S-protein (on 293FT effector cells) (MERS-CoV, UniProt K9N5Q8)
Assay: cell-based or functional assay

SLTQINTTLLDLTYEMLSLQQVVKALNESYIDLKEL [Peptide 1 (WT)]
EC50 (µM), cell-cell fusion assay: 1.05 µM

Source: US20210332086A1 (published 2021)
